Source: IntAct's records for PubMed 19468302

B1: Rac GTPase-activating protein 1 (Homo sapiens), Q9H0H5 (parent)
chain: MDTMMLNVRNLFEQLVRRVEILSEGNEVQFIQLAKDFEDFRKKWQRTDHELGKYKDLLMKAETERSALDVKLKHARNQVDVEIKRRQRAEADCEKLERQIQLIREMLMCDTSGSIQLSEEQKSALAFLNRGQPSSSNAGNKRLSTIDESGSILSDISFDKTDESLDWDSSLVKTFKLKKREKRRSTSRQFVDGPPGPVKKTRSIGSAVDQGNESIVAKTTVTVPNDGGPIEAVSTIETVPYWTRSRRKTGTLQPWNSDSTLNSRQLEPRTETDSVGTPQSNGGMRLHDFVSKTVIKPESCVPCGKRIKFGKLSLKCRDCRVVSHPECRDRCPLPCIPTLIGTPVKIGEGMLADFVSQTSPMIPSIVVHCVNEIEQRGLTETGLYRISGCDRTVKELKEKFLRVKTVPLLSKVDDIHAICSLLKDFLRNLKEPLLTFRLNRAFMEAAEITDEDNSIAAMYQAVGELPQANRDTLAFLMIHLQRVAQSPHTKMDVANLAKVFGPTIVAHAVPNPDPVTMLQDIKRQPKVVERLLSLPLEYWSQFMMVEQENIDPLHVIENSNAFSTPQTPDIKVSLLGPVTTPEHQLLKTPSSSSLSQRVRSTLTKNTPRFGSKSKSATNLGRQGNFFASPMLK
partner: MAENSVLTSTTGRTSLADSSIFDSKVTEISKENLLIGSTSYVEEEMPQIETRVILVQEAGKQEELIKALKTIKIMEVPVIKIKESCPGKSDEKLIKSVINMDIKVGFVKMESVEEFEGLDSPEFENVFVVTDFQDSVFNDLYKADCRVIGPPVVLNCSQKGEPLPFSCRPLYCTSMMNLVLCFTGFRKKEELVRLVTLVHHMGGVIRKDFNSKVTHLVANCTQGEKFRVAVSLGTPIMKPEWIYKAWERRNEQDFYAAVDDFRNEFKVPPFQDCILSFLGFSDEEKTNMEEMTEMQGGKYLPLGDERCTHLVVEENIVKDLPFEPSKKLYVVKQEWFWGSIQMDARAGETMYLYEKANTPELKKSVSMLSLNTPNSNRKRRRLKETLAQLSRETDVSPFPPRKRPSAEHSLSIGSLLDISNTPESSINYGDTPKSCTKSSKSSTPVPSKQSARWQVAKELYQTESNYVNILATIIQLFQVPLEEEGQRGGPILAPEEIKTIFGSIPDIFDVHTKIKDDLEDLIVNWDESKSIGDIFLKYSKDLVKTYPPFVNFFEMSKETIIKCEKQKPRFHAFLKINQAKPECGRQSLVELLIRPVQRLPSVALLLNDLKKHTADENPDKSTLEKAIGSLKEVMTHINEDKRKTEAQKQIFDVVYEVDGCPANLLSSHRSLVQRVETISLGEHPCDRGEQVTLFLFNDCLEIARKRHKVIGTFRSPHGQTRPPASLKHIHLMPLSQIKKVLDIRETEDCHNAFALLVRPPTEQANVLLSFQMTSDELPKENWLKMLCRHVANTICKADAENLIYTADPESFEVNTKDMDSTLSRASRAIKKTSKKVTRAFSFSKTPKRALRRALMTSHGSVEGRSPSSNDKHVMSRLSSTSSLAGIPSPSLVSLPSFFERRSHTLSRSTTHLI
B2: Rac GTPase-activating protein 1 (Homo sapiens), Q9H0H5 (parent)
chain: B1 chain

Variants of: B1
Conditions: with ect2_human ECT2, Q9H8V3

effect of a mutation on the interaction | Variant
decreasing interaction | S157A
disrupting interaction | S157A;S164A;S170A
decreasing interaction strength | S157A;S164A;S170A;S214A;T260A

Variants of: B2
Conditions: with plk1_human PLK1, P53350
Sequence of plk1_human PLK1, P53350 (P53350 whole entry): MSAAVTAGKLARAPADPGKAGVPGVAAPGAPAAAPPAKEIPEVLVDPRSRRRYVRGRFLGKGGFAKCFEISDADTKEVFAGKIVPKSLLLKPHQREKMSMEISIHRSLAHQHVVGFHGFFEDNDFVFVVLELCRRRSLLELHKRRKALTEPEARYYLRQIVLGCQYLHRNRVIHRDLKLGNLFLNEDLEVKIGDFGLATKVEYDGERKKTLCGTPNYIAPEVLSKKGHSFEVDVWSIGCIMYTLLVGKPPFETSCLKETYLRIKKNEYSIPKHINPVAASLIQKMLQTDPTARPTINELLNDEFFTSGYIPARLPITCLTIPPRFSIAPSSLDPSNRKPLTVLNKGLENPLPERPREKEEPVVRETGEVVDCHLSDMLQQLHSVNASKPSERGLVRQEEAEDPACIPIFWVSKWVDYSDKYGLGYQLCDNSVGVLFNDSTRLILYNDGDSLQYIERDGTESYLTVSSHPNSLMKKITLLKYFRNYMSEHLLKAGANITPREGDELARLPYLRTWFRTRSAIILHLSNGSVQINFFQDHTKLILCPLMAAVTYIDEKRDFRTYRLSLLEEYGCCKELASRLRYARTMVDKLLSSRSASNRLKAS

effect of a mutation on the interaction | Variant
decreasing interaction strength | S157A;S164A;S170A;S214A;T260A
